Results published in patent publication US20210032312A1 (Janssen / Centocor, published 2021).

How the values were obtained:
[1] = target: T1, cynomolgus monkey CD8 alpha on primary cynomolgus CD8+ T cells (cynomolgus monkey, UniProt P01732 23-235 (human entry)); assay: flow cytometry, cyno CD8+ T cells
T1 construct: also called Cyno CD8alpha; cyno CD8A
Procedure: (§1) Binding of the 190 ELISA hits to human and cynomologous monkey primary CD8 T cells was assessed by flow cytometry. The FN3 domain molecules were diluted to 2 μM and 0.2 μM in PBS and incubated with human or cynomologous monkey CD8+ T cells in 96-well format. After 1 hour at 4 C, the cells were washed once with PBS and then resuspended with an anti-FN3 domain antibody (PAB25) solution. Following this incubation, the cells were washed twice with PBS and a PE conjugated secondary antibody and a viability dye were added. Finally, cells were washed and resuspended in PBS for flow cytometric analysis using a BD Canto Instrument. Cells were gating on live cells and median fluorescence intensity of the bound Centyrins (PE channel) was calculated using Cytobank software.

[2] = target: T2, human CD8 alpha (CD8A) on primary human CD8+ T cells (human, UniProt P01732 22-235); assay: flow cytometry, human CD8+ T cells
T2 construct: whole, on cells; also called hCD8A
Procedure: as §1

human CD8A-Fc (in house) = target: T3, human CD8A-Fc (in house) (human, UniProt P01732 22-182, limits assumed); assay: SPR (ProteOn), captured hCD8A-Fc
T3 construct: captured by goat anti-human Fc on the ProteOn chip; also called hCD8A-Fc; recombinant human CD8 alpha; not shown: linker/tag and Fc of human IgG1
T3 sequence (P01732 22-182 limits assumed): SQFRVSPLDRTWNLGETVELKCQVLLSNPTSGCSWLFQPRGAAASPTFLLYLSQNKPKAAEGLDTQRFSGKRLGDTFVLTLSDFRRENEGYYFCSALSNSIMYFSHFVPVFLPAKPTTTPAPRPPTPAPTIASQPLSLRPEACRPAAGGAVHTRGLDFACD

T2 sequence (P01732 22-235): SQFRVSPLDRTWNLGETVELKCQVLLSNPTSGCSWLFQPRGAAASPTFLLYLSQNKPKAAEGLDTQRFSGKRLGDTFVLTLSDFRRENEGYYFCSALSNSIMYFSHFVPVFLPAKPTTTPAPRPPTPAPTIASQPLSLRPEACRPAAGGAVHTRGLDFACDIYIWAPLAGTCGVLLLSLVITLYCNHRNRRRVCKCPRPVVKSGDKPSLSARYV
T1 sequence (P01732 other isoform, or with tags, fused parts or gaps limits assumed): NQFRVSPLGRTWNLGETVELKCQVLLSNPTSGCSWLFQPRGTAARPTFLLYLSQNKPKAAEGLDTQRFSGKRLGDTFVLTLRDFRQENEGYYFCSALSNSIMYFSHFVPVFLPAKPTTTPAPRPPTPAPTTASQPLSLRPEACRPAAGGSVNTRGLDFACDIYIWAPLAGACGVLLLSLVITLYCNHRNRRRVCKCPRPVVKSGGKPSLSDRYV

Binder | Cyno T-cell Binding 0.2 uM (MFI) [1] [MFI] | Cyno T-cell Binding 2 uM (MFI) [1] [MFI] | Human T-cell Binding 0.2 uM (MFI) [2] [MFI] | Human T-cell Binding 2 uM (MFI) [2] [MFI] | koff (human CD8A-Fc (in house)) [s⁻¹]
P283FR9P1366_H5 (designed binder, FN3 domain) LPAPKNLVVSRVTEDSARLSWTAPDAAFDSFIYIENKVNGEAIVLTVPGSERSYDLTGLKPGTEYHVTIGGVKGGTESNTLSAIFTT | 477 | 5090 | 252 | 3140 | 0.00318
P283GR7P1367_B9 (designed binder, FN3 domain) LPAPKNLVVSRVTEDSARLSWTAPDAAFDSFEIWYHEYHPRGEAIVLTVPSSERSYDLTGLKPGTEYDVVISGVKGGHWSYPLSAIFTT | 442 | 2920 | 1090 | 11200 | 0.00116
P283FR9P1366_E11 (designed binder, FN3 domain) LPAPKNLVVSRVTEDSARLSWTAPDAAFDSFDIAYPEWPVPGEAIVLTVPGSERSYDLTGLKPGTEYWVIIKGVKGGNISWPLSAIFTT | 1470 | 14200 | 567 | 4590 | 0.00141
P283FR9P1366_G8 (designed binder, FN3 domain) LPAPKNLVVSRVTEDSARLSWTAPDAAFDSFDIAYPELPIGGEAIVLTVPGSERSYDLTGLKPGTEYFVVIYGVKGGIHSAPLSAIFTT | 3130 | 37100 | 574 | 6860 | 0.00108
P283FR9P1366_H3 (designed binder, FN3 domain) LPAPKNLVVSRVTEDSARLSWTAPDAAFDSFAIAYPEWPIKGEAIVLTVPGSERSYDLTGLKPGTEYWVVIYGVKGGVFSEPLSAIFTT | 3170 | 40800 | 632 | 7670 | 0.00121
P283FR9P1366_G1 (designed binder, FN3 domain) LPAPKNLVVSRVTEDSARLSWTAPDAAFDSFYISYPELPVEGEAIVLTVPGSERSYDLTGLKPGTEYWVIIWGVKGGATSEPLSAIFTT | 4980 | 39800 | 650 | 3600 | 0.000872
P283FR9P1366_F5 (designed binder, FN3 domain) LPAPKNLVVSRVTEDSARLSWTAPDAAFDSFDIGYPEWPIKGEAIVLTVPGSERSYDLTGLKPGTEYWVIIWGVKGGDRSEPLSAIFTT | 4700 | 46400 | 720 | 6880 | 0.00104
P283FR9P1366_G5 (designed binder, FN3 domain) LPAPKNLVVSRVTEDSARLSWTAPDAAFDSFQIAYPEYPALGEAIVLTVPGSERSYDLTGLKPGTEYFVIIIGVKGGDESFPLSAIFTT | 369 | 36400 | 261 | 8450 | 0.000705
P283FR9P1366_H7 (designed binder, FN3 domain) LPAPKNLVVSRVTEDSARLSWTAPDAAFDSFQIAYPEYPALGEAIVLTVPGSERSYDLTGLKPGTEYFVIIAGVKGGIQSWPLSAIFTT | 1240 | 24400 | 567 | 13800 | 0.00177
P283FR9P1366_H6 (designed binder, FN3 domain) LPAPKNLVVSRVTEDSARLSWTAPDAAFDSFDIAYPEWPVTGEAIVLTVPGSERSYDLTGLKPGTEYWVIIFGVKGGERSWPLSAIFTT | 19000 | 81500 | 7130 | 43900 | 0.000205
P283FR9P1366_F9 (designed binder, FN3 domain) LPAPKNLVVSRVTEDSARLSWTAPDAAFDSFHIFYPELPIAGEAIVLTVPGSERSYDLTGLKPGTEYWVNISGVKGGYESWPLSAIFTT | 24600 | 84300 | 6300 | 33600 | 0.000494
P283FR9P1366_F8 (designed binder, FN3 domain) LPAPKNLVVSRVTEDSARLSWTAPDAAFDSFAIAYPEIAKWGEAIVLTVPGSERSYDLTGLKPGTEYFVIIYGVKGGVHSFPLSAIFTT | 2270 | 27000 | 369 | 3970 | 0.00403

Next, values leading:

Cyno T-cell Binding 0.2 uM (MFI) [1] [MFI] | Cyno T-cell Binding 2 uM (MFI) [1] [MFI] | Human T-cell Binding 0.2 uM (MFI) [2] [MFI] | Human T-cell Binding 2 uM (MFI) [2] [MFI] | koff (human CD8A-Fc (in house)) [s⁻¹] | Binder
367 | 396 | 446 | 8300 | 0.00518 | P283GR7P1367_B4 (designed binder, FN3 domain) LPAPKNLVVSRVTEDSARLSWTAPDAAFDSFSILYYELPPSGEAIVLTVPGSERSYDLTGLKPGTEYTVSIFGVKGGDNSFPLSAIFTT
533 | 3190 | 1330 | 10000 | 0.00124 | P283GR7P1367_E5 (designed binder, FN3 domain) LPAPKNLVVSRVTEDSARLSWTAPDAAFDSFEIWYHEYHPRGEAIVLTVPGSERSYDLTGLKPGTEYDVVISGVKGGHWSYPLSAIFTT
2880 | 36500 | 693 | 8570 | 0.00198 | P283FR9P1366_H9 (designed binder, FN3 domain) LPAPKNLVVSRVTEDSARLSWTAPDAAFDSFEIAYPEWPVNGEAIVLTVPGSERSYDLTGLKPGTEYWVVIWGVKGGVNSYPLSAIFTT
918 | 6120 | 434 | 1710 | 0.00147 | P283GR7P1367_H9 (designed binder, FN3 domain) LPAPKNLVVSRVTEDSARLSWTAPDAAFDSFDIAYPEWPTDGEAIVLTVPGSERSYDLTGLKPGTEYFVVIYGVKGGGRSAPLSAIFTT
13900 | 75200 | 2410 | 25000 | 0.00063 | P283FR9P1366_H10 (designed binder, FN3 domain) LPAPKNLVVSRVTEDSARLSWTAPDAAFDSFNIAYPEWPPEGEAIVLTVPGSERSYDLTGLKPGTEYFVVIYGVKGGHLSDPLSAIFTT
17100 | 61300 | 4540 | 24900 | 0.000175 | P283FR9P1366_H8 (designed binder, FN3 domain) LPAPKNLVVSRVTEDSARLSWTAPDAAFDSFYISYPEWPGSGEAIVLTVPGSERSYDLTGLKPGTEYAVFIWCVKGGWLSDPLSAIFTT
5550 | 67000 | 896 | 11000 | 0.00221 | P283GR7P1367_C9 (designed binder, FN3 domain) LPAPKNLVVSRVTEDSARLSWTAPDAAFDSFLIGYPEWPLGGEAIVLTVPGSERSYDLTGLKPGTEYWVIIYGVKGGEYSDPLSAIFTT
5670 | 66700 | 1030 | 11300 | 0.000635 | P283GR7P1367_A11 (designed binder, FN3 domain) LPAPKNLVVSRVTEDSARLSWTAPDAAFDSFDIAYPEWPTDGEAIVLTVPGSERSYDLTGLKPGTEYFVIIYGVKGGSYSEPLSAIFTT
3130 | 37500 | 739 | 10900 | 0.00127 | P283GR7P1367_B7 (designed binder, FN3 domain) LPAPKNLVVSRVTEDSARLSWTAPDAAFDSFDIAYPEWPTDGEAIVLTVPGSERSYDLTGLKPGTEYFVVIYGVKGGHWSYPLSAIFTT
2050 | 29000 | 601 | 4560 | 0.00108 | P283GR7P1367_F5 (designed binder, FN3 domain) LPAPKNLVVSRVTEDSARLSWTAPDAAFDSFDIAYPEWPTDGEAIVLTVPGSERSYDLTGLKPGTEYFVIIYGVKGGALSRPLSAIFTT
864 | 4210 | 390 | 1620 | 0.00235 | P283GR7P1367_H2 (designed binder, FN3 domain) LPAPKNLVVSRVTEDSARLSWTAPDAAFDSFDIAYPEWPTDGEAIVLTVPGSERSYDLTGLKPGTEYFVVIYGVKGGGRSYPLSAIFTT
